Results reported in the Human Domainome abundance scans (Beltran et al. 2025).
± gives the uncertainty stated by the source.

B1: Segment polarity protein dishevelled homolog DVL-3, residues 2 to 81; numbered along this chain, Q92997 (parent)
chain: GETKIIYHLDGQETPYLVKLPLPAERVTLADFKGVLQRPSYKFFFKSMDDDFGVVKEEISDDNAKLPCFNGRVVSWLVSA

Variants of: B1
Assay: abundance fitness (aPCA) (normalised: wild type 0, dead -1); higher = more abundant; growth selection in yeast, the domain comes from the species named
Conditions: Homo sapiens

Question: Which abundance fitness does the source give for GETKIIYHLDGQETPYLVKLPLPAERVTLADFKGVLQRPSYKFFFKSMDDDFGVVKEEISDDKAKLPCFNGRVVSWLVSA [N63K] here?
Answer: -0.175 ± 0.07

Question: With GETKIIYHLDGQETPYLVKLPLPAERVTLADFKGVLQRPSYKFFFKSMDDDFGVVKREISDDNAKLPCFNGRVVSWLVSA [E57R] as the variant, how does the abundance fitness read?
Answer: 0.44 ± 0.038

Question: Which abundance fitness does the source give for GETKIIYHLDGQETPYLVKLPLPCERVTLADFKGVLQRPSYKFFFKSMDDDFGVVKEEISDDNAKLPCFNGRVVSWLVSA [A24C] here?
Answer: -0.107 ± 0.088

Question: For GYTKIIYHLDGQETPYLVKLPLPAERVTLADFKGVLQRPSYKFFFKSMDDDFGVVKEEISDDNAKLPCFNGRVVSWLVSA [E2Y], which abundance fitness is on record?
Answer: -0.049 ± 0.083

Question: Which abundance fitness does the source give for GETKIIYHLDGQETPYLVKLPLPAERVTLADFKGVLQRPSYKFFFKSMDDDFGVVKEEISDDNAKSPCFNGRVVSWLVSA [L66S] here?
Answer: -0.747 ± 0.09

Question: Which abundance fitness does the source give for GETKIIYHLDGQETPYLVKLPLPAERVTLADFKGVLQRPSYKFFFKSMDDDFGVVKEEISDFNAKLPCFNGRVVSWLVSA [D62F] here?
Answer: -0.536 ± 0.25

Question: With GETKIIYHLDGQETPYLVKLPLPAERVTLADFKGVLQRPSYKFFFKSMDNDFGVVKEEISDDNAKLPCFNGRVVSWLVSA [D50N] as the variant, how does the abundance fitness read?
Answer: -0.079 ± 0.078

Question: With GETKIIYHLDGQETPYLVKLPLPAERVTLADFKGVLQRPSYKFFFKSMDDDFGVVKEEISDDNAKLPCFNGRVVSWLASA [V78A] as the variant, how does the abundance fitness read?
Answer: -0.836 ± 0.25

Question: For GETKIIYHLDGQETPYLVKLPLPAERVTLADFKGVLQRPSYKFFFKSMDDDFGVVKEEISHDNAKLPCFNGRVVSWLVSA [D61H], which abundance fitness is on record?
Answer: -0.695 ± 0.22

Question: With GETKIIYHLDGQETPYLVKLPLPAERVTLADFKGVLQRPSYKFFFKSMDDDFGVVKEEISDDNAKLPCFNIRVVSWLVSA [G71I] as the variant, how does the abundance fitness read?
Answer: -0.249 ± 0.098

Question: For GETKIIYHLDGQETPYLVKLPEPAERVTLADFKGVLQRPSYKFFFKSMDDDFGVVKEEISDDNAKLPCFNGRVVSWLVSA [L22E], which abundance fitness is on record?
Answer: -0.617 ± 0.12

Question: For GETKIIYHLDGQEGPYLVKLPLPAERVTLADFKGVLQRPSYKFFFKSMDDDFGVVKEEISDDNAKLPCFNGRVVSWLVSA [T14G], which abundance fitness is on record?
Answer: -0.296 ± 0.065

Question: For GETKIIYHLDGQETPYLVKLPLPAERVTLADFKLVLQRPSYKFFFKSMDDDFGVVKEEISDDNAKLPCFNGRVVSWLVSA [G34L], which abundance fitness is on record?
Answer: -0.119 ± 0.058

Question: For GETKIIYHLDGQETPYLVKLGLPAERVTLADFKGVLQRPSYKFFFKSMDDDFGVVKEEISDDNAKLPCFNGRVVSWLVSA [P21G], which abundance fitness is on record?
Answer: -0.56 ± 0.066

Question: Which abundance fitness does the source give for GETKIIYHLDGQETPYLVKLPLPAERVTLADFKGVLQRPSYKFFFKSCDDDFGVVKEEISDDNAKLPCFNGRVVSWLVSA [M48C] here?
Answer: 0.133 ± 0.067

Question: With GETKIIYHLDGQETPYLVKLPLPAERVTLADFKGVLQRPSYKFFFKSMDDDFGVVKEEISDDNAKGPCFNGRVVSWLVSA [L66G] as the variant, how does the abundance fitness read?
Answer: -0.789 ± 0.076

Question: With GETKIIYHLDGQETPYLVKLPLPAERVTLADFKGVLQRPSYKFFFKSMDDDLGVVKEEISDDNAKLPCFNGRVVSWLVSA [F52L] as the variant, how does the abundance fitness read?
Answer: 0.249 ± 0.042

Question: For GETKIIYHLDGQETPYLVKLPLPAERVTLADFKGVLQRPSYKFEFKSMDDDFGVVKEEISDDNAKLPCFNGRVVSWLVSA [F44E], which abundance fitness is on record?
Answer: -0.683 ± 0.1

Question: With GETKIIYHLDGQETPYLVKLPLPAERVTLAYFKGVLQRPSYKFFFKSMDDDFGVVKEEISDDNAKLPCFNGRVVSWLVSA [D31Y] as the variant, how does the abundance fitness read?
Answer: -0.714 ± 0.2

Question: With GETKIIYHLDGQETPYLVKLPLPAERVTLADFKGVLQRPSYKFFFKSMDDDFGVEKEEISDDNAKLPCFNGRVVSWLVSA [V55E] as the variant, how does the abundance fitness read?
Answer: -0.104 ± 0.059

Question: Which abundance fitness does the source give for GETKIIYHLDGQETPYLVKLPLPAERVTLADFKGVLQRPSYKFFFKVMDDDFGVVKEEISDDNAKLPCFNGRVVSWLVSA [S47V] here?
Answer: 0.269 ± 0.041

Question: With GETKIIYHLDGQETPYLVKLPLPAERVTLADFKGVLQRPSYKFFFKSMDWDFGVVKEEISDDNAKLPCFNGRVVSWLVSA [D50W] as the variant, how does the abundance fitness read?
Answer: -0.445 ± 0.15

Question: For GETKIIYHLDGQETPYLVKLPLPAERVTLADFKGVLQRPSYKFFFKSMDDDFGVVKEQISDDNAKLPCFNGRVVSWLVSA [E58Q], which abundance fitness is on record?
Answer: -0.513 ± 0.12

Question: For GETKIIYHLDGQETPYLVKLPLPAERVTLADFKGVLQRPSYFFFFKSMDDDFGVVKEEISDDNAKLPCFNGRVVSWLVSA [K42F], which abundance fitness is on record?
Answer: 0.052 ± 0.14

Question: For GETKIIYHLDGQETPYLVKLPLPAERVTLADFKGVLQRPSYKFFFKSMDDDRGVVKEEISDDNAKLPCFNGRVVSWLVSA [F52R], which abundance fitness is on record?
Answer: 0.618 ± 0.048

Question: For GETKIIYHLDGQETPYLVKLPLPAERVTLADFKGVLQRPSYKFFFKSMDDDFGVVKEEISDDNRKLPCFNGRVVSWLVSA [A64R], which abundance fitness is on record?
Answer: -0.359 ± 0.052

Question: For GETKIIYHLDGQETPYLVKLPLMAERVTLADFKGVLQRPSYKFFFKSMDDDFGVVKEEISDDNAKLPCFNGRVVSWLVSA [P23M], which abundance fitness is on record?
Answer: -0.972 ± 0.2

Question: With GETKIIYHLDGQETPYLVKLPLPAERVTLADFKGVLQRPSYKFFFKSMDDDFGVVKEEISYDNAKLPCFNGRVVSWLVSA [D61Y] as the variant, how does the abundance fitness read?
Answer: -0.666 ± 0.21

Question: Which abundance fitness does the source give for GETKIIYHLDGQETCYLVKLPLPAERVTLADFKGVLQRPSYKFFFKSMDDDFGVVKEEISDDNAKLPCFNGRVVSWLVSA [P15C] here?
Answer: -0.33 ± 0.14

Question: With GETKIIYHLDGQFTPYLVKLPLPAERVTLADFKGVLQRPSYKFFFKSMDDDFGVVKEEISDDNAKLPCFNGRVVSWLVSA [E13F] as the variant, how does the abundance fitness read?
Answer: -0.549 ± 0.099

Question: For GETKIIYHLDGQETPYLVKLPLPAERVTLADFKGVLQRPSYKFWFKSMDDDFGVVKEEISDDNAKLPCFNGRVVSWLVSA [F44W], which abundance fitness is on record?
Answer: -0.244 ± 0.068

Question: Which abundance fitness does the source give for GETKIIYHLLGQETPYLVKLPLPAERVTLADFKGVLQRPSYKFFFKSMDDDFGVVKEEISDDNAKLPCFNGRVVSWLVSA [D10L] here?
Answer: -0.848 ± 0.089

Question: For GETKIIYHLDGQETPYLVKLPLPAERVTLADFKGVLQRPSYKFFFDSMDDDFGVVKEEISDDNAKLPCFNGRVVSWLVSA [K46D], which abundance fitness is on record?
Answer: -0.061 ± 0.1

Question: With GETKIIYHLDGQETPYLVKLPLPAERVTLADFKGVLQRPSYKFFFKSMDDDFGVVKEELSDDNAKLPCFNGRVVSWLVSA [I59L] as the variant, how does the abundance fitness read?
Answer: -0.64 ± 0.071
